Ends that are not written are not given here.

One experiment has as its system EphA2. The settings on record: recently reported by the authors; cited from earlier work.
Experiment [1] has as its target ephrin type-A receptor 2 ligand-binding domain (UniProt P29317 23-202). In words: DELFIA displacement assay.

Sequence of ephrin type-A receptor 2 ligand-binding domain (P29317 23-202): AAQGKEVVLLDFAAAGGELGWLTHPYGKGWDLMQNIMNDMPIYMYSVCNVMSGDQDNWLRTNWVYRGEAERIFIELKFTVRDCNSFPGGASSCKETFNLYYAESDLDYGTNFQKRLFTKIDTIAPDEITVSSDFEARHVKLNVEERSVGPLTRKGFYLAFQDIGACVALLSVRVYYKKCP

Consider `CSCC[C@H](NC(=O)[C@H](CCSC)NC(=O)[C@@H]1CCCN1C(=O)[C@@H](NC(=O)[C@H](CO)NC(=O)[C@H](CC(=O)O)NC(=O)[C@@H]1CCCN1C(=O)[C@H](Cc1ccc(O)cc1)NC(=O)[C@H](C)NC(=O)[C@H](CO)NC(=O)[C@@H](N)Cc1ccc(O)cc1)C(C)C)C(=O)N[C@@H](CO)C(N)=O` [YSA], for which, in the experiment on EphA2, the “concentration required in cell-based assays to activate the receptor” value is recorded as “tripledigit micromolar concentration”.
One may read the IC50 as the concentration needed to halve the response being measured. FTAFPLGFEFRP-NH2 [135B8] came in with a half-maximal inhibitory concentration (IC50) in experiment [1] of more than 100 µM.
The same measure, in the same setting: for YSCYPDSVPFRP-NH2 [135D6] the value was more than 100 µM; for YSAYPLSVEFRP-NH2 [135A7], more than 100 µM.
In experiment [1], FTAFPLGFEMMS-NH2 [135B9] displayed a concentration for half-maximal inhibition (IC50) of more than 100 µM.
The same measure, in the same setting: for YSAYPDSVEMMS-NH2 [135B1] the value was more than 100 µM; for YDYVAVAGPAEY-NH2 [135A1 (1C1)], more than 500 µM.
The same measure, in the same setting: for YSLYPDSVPFRP-NH2 [135D8] the value was more than 200 µM; for YSVYPDSVPFRP-NH2 [135D7], more than 200 µM; for YSAYPLSVEMMS-NH2 [135B2], more than 200 µM.

(Values after publication PMC6597003 (ACS chemical biology, 2018).)
